Ends that are not written are not given here. Peptide text beside a SMILES is read from it. * marks the point of attachment. Biotin = O=C1N[C@H]2[C@H](CS[C@H]2CCCCC(=O)*)N1
How the values were obtained:
Test in all cases: G' assay (10 uM PL peptide), results of TABLE 7 and TABLE 12
Type in all cases: binding
[1] = biological target: T1, PDZ protein (GST-PDZ fusion) (Homo sapiens, UniProt Q02410)
T1 construct: made in house; host or cells: E. coli (DH5alpha, BL21 or JM109)
T1 sequence (Q02410 1-837): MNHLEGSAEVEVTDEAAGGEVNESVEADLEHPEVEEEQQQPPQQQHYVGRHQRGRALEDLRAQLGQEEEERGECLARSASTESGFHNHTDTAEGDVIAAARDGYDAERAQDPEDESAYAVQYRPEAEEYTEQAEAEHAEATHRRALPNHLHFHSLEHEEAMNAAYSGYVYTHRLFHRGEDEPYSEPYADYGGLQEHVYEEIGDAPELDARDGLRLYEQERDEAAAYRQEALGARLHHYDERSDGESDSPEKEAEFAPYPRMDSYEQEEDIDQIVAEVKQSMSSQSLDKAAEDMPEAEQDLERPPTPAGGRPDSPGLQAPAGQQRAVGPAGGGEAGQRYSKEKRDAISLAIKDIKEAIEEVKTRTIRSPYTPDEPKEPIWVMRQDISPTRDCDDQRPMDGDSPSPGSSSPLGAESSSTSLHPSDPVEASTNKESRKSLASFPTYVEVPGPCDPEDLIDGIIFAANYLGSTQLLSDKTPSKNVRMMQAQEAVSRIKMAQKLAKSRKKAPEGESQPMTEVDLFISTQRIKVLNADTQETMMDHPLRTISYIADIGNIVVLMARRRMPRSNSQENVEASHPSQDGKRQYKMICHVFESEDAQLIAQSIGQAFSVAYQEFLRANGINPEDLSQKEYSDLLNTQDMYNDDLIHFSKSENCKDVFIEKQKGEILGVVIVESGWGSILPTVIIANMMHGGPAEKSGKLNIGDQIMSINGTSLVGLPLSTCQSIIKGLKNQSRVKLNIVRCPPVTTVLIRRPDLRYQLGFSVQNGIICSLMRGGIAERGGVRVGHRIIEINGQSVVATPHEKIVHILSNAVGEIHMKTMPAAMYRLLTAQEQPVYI
Procedure, shortened: (§1)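 Biotin-PL peptide (N-term label), 10 uM vs GST-PDZ; protein 5 ug/ml by default. A450 nm binned: 1 = 0-1, 2 = 1-2, 3 = 2-3, 4 = 3-4, 5 = >4 on >2 repeats, 0 = no binding.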

[2] = biological target: T2, PDZ protein (GST-PDZ fusion) (Homo sapiens, UniProt Q96JH8); conditions: PDZ FLJ 10324, PDZ Domain 1
T2 construct: made in house; host or cells: E. coli (DH5alpha, BL21 or JM109)
T2 sequence (Q96JH8 1-1075): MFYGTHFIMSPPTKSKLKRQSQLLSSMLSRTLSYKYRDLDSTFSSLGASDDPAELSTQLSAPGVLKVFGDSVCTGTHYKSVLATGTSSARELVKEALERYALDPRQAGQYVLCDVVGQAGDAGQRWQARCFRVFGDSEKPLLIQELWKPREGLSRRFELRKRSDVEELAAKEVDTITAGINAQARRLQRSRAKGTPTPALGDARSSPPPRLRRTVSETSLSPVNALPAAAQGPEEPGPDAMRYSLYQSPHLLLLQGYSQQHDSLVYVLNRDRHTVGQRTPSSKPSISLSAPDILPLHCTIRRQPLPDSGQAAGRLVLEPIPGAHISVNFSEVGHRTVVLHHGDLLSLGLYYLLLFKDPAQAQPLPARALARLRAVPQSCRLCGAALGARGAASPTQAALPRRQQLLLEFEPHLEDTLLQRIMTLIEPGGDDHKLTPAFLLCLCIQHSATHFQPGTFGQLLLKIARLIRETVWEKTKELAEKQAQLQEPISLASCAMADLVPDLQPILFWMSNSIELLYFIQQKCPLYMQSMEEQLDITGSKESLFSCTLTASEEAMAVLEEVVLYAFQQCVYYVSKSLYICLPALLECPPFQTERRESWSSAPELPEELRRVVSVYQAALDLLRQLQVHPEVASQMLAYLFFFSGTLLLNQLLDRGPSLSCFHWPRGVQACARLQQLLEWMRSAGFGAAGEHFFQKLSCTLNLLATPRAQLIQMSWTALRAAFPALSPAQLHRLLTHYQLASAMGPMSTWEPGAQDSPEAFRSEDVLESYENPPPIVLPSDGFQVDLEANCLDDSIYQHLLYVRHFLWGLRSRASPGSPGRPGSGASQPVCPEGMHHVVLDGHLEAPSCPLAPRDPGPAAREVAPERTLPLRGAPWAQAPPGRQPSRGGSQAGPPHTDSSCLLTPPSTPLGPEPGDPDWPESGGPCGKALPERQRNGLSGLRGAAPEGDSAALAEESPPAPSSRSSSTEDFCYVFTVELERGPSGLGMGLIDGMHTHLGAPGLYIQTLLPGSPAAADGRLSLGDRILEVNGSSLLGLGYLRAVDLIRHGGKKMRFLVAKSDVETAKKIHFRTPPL
Procedure, shortened: as §1

[3] = biological target: T3, PDZ protein (GST-PDZ fusion) (Homo sapiens, UniProt Q6P0Q8)
T3 construct: made in house; host or cells: E. coli (DH5alpha, BL21 or JM109)
Procedure, shortened: as §1

[4] = PDZ KIAA807, PDZ Domain not given

T3 sequence (Q6P0Q8 whole entry, the tested form may be a part): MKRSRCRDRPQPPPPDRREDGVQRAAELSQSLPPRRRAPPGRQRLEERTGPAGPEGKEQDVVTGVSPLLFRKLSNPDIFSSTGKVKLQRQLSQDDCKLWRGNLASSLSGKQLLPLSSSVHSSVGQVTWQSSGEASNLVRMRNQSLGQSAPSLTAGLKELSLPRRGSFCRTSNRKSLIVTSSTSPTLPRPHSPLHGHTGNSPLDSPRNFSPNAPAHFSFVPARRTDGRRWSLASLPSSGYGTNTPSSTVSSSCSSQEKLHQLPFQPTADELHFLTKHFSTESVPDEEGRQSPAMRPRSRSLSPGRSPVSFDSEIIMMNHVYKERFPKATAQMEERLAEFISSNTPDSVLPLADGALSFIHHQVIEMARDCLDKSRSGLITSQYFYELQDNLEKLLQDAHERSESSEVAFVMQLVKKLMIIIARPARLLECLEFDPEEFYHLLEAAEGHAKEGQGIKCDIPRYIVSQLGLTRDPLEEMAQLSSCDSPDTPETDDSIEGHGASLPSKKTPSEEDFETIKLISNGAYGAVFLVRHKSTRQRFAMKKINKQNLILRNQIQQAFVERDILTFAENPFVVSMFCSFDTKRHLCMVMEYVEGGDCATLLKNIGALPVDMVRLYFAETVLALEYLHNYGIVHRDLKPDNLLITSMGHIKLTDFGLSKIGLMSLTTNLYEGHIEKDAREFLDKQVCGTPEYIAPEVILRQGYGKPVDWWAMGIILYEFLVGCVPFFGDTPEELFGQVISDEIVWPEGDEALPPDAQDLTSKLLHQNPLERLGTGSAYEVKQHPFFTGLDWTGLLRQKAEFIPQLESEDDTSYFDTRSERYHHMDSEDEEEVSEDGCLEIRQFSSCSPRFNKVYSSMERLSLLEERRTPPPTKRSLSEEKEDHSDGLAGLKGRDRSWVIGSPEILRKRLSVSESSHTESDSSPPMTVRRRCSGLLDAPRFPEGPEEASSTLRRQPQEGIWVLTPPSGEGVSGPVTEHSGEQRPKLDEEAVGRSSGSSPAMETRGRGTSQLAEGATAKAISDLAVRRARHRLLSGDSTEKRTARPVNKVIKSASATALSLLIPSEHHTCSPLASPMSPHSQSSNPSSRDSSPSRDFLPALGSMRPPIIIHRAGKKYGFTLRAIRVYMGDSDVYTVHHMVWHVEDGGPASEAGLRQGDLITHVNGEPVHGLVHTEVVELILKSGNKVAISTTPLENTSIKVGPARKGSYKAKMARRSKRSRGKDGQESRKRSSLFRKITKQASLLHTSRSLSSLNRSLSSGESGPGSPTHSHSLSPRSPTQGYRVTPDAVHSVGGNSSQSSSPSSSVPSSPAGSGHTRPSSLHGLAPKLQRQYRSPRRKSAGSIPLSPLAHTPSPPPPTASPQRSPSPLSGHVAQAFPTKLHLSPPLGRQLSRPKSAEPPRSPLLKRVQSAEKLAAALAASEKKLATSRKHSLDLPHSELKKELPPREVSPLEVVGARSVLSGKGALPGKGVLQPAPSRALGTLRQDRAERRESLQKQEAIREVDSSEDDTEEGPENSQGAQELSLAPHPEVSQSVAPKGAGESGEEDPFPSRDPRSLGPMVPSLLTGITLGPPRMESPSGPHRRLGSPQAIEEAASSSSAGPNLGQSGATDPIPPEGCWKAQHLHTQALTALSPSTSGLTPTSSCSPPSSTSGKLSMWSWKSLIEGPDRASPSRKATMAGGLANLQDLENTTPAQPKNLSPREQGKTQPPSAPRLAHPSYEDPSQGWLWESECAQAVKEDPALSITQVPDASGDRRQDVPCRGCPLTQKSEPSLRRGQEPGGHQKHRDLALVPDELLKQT

Compound | Classification ([1]; PDZ Mint 1, PDZ Domain 1, 2) | Classification ([1]; PDZ Mint 1, PDZ Domain 2) | Classification [2] | Classification [3, 4] | Classification ([3]; PDZ KIAA0807(S), PDZ Domain 1) | other results
CSCC[C@H](NC(=O)[C@H](C)NC(=O)[C@H](CCCNC(=N)N)NC(=O)CNC(=O)[C@@H](NC(=O)[C@H](Cc1c[nH]c2ccccc12)NC(=O)[C@H](CCCNC(=N)N)NC(=O)CNC(=O)CCCC[C@@H]1SC[C@@H]2NC(=O)N[C@@H]21)[C@@H](C)O)C(=O)N[C@@H](CO)C(=O)N[C@@H](C)C(=O)N[C@@H](Cc1c[nH]c2ccccc12)C(=O)N[C@@H](CCCCN)C(=O)N1CCC[C@H]1C(=O)N[C@H](C(=O)N[C@@H](CCCNC(=N)N)C(=O)N[C@@H](CCCNC(=N)N)C(=O)N[C@@H](CCC(=O)O)C(=O)N[C@H](C(=O)N[C@@H](CCC(=O)O)C(=O)N[C@H](C(=O)O)C(C)C)[C@@H](C)O)[C@@H](C)O [HPV E6 #35 (modified)] (Biotin-GRWTGRAMSAWKPTRRETEV-OH; C-terminus assumed) | 1 (A450 nm 0-1) | 2 (A450 nm 1-2) | 1 (A450 nm 0-1) | 5 (A450 nm of 4 more than 2× repeated) |  | Classification ([3]; PDZ KIAA0807(S), PDZ Domain 1, Protein Optimal Conc 0.5): 5 (A450 nm of 4 more than 2× repeated)
PPATPSPRLALPAHHNATRL (Biotin-PPATPSPRLALPAHHNATRL) [Na+/Pi cotransporter 2] |  | 1 (A450 nm 0-1) | 1 (A450 nm 0-1) | 5 (A450 nm of 4 more than 2× repeated) | 5 (A450 nm of 4 more than 2× repeated) | 
PYSELNYETSHYPASPDSWV (Biotin-PYSELNYETSHYPASPDSWV) [catenin - delta 2] | 5 (A450 nm of 4 more than 2× repeated) | 3 (A450 nm 2-3) | 3 (A450 nm 2-3) |  | 3 (A450 nm 2-3) | Classification ([3]; PDZ KIAA807 (domain not given)): 4 (A450 nm 3-4)
CC(C)C[C@H](NC(=O)[C@H](CC(C)C)NC(=O)[C@@H](NC(=O)[C@H](CC(=O)O)NC(=O)CCCC[C@@H]1SC[C@@H]2NC(=O)N[C@@H]21)[C@@H](C)O)C(=O)N[C@@H](CC(C)C)C(=O)N[C@H](C(=O)N[C@@H](CCC(=O)O)C(=O)N[C@@H](CC(N)=O)C(=O)N[C@@H](CCC(=O)O)C(=O)NCC(=O)N[C@@H](CC(=O)O)C(=O)N[C@@H](CCCCN)C(=O)N[C@H](C(=O)N[C@@H](CCC(=O)O)C(=O)N[C@@H](CCC(=O)O)C(=O)N[C@@H](CCC(N)=O)C(=O)N[C@H](C(=O)N[C@@H](CO)C(=O)N[C@@H](Cc1ccc(O)cc1)C(=O)N[C@H](C(=O)O)C(C)C)C(C)C)[C@@H](C)O)[C@@H](C)O [5H2B_HUMAN] (Biotin-DTLLLTENEGDKTEEQVSYV-OH; C-terminus assumed) | 1 (A450 nm 0-1) | 1 (A450 nm 0-1) | 2 (A450 nm 1-2) |  | 1 (A450 nm 0-1) | Classification ([3]; PDZ KIAA807): 1 (A450 nm 0-1)
ISGTPTSTMVHGMTSSSSVV (Biotin-ISGTPTSTMVHGMTSSSSVV) [Clasp-2] | 1 (A450 nm 0-1) |  | 1 (A450 nm 0-1) | 1 (A450 nm 0-1) |  | 
ALVLIAFCIIRRRPSAYQAL (Biotin-ALVLIAFCIIRRRPSAYQAL) [CD68] | 1 (A450 nm 0-1) | 2 (A450 nm 1-2) | 1 (A450 nm 0-1) |  | 5 (A450 nm of 4 more than 2× repeated) | 
A2AA_HUMAN (modified) (Biotin-HDFRRAFKKILARGDRKRIV; not fully specified) |  |  | 1 (A450 nm 0-1) |  | 1 (A450 nm 0-1) | Classification ([1]; PDZ Mint 1, PDZ Domain 1): 1 (A450 nm 0-1)
CC[C@H](C)[C@H](NC(=O)[C@H](CCCCN)NC(=O)[C@@H](NC(=O)[C@H](CO)NC(=O)[C@@H]1CCCN1C(=O)[C@H](Cc1ccccc1)NC(=O)[C@@H](NC(=O)[C@@H](NC(=O)[C@H](CCCNC(=N)N)NC(=O)[C@H](CCC(=O)O)NC(=O)[C@H](CC(C)C)NC(=O)[C@H](CC(C)C)NC(=O)[C@H](CC(C)C)NC(=O)[C@@H](NC(=O)CNC(=O)[C@@H](NC(=O)CCCC[C@@H]1SC[C@@H]2NC(=O)N[C@@H]21)C(C)C)[C@@H](C)O)C(C)C)[C@@H](C)CC)C(C)C)C(=O)N[C@@H](C)C(=O)N[C@H](C(=O)N[C@@H](CC(C)C)C(=O)N[C@H](C(=O)O)C(C)C)[C@@H](C)O [Adenovirus E4 Type9] |  |  |  |  |  | Classification ([1]; PDZ Mint 1, PDZ Domain 1, 2, PL peptide 10 uM): 2 (A450 nm 1-2); Classification ([1]; PDZ Mint 1, PDZ Domain 2, PL peptide 10 uM): 2 (A450 nm 1-2); Classification ([2]; Protein Optimal Conc 5): 3 (A450 nm 2-3); Classification ([3]; PDZ KIAA0807(S), PDZ Domain 1, Protein Optimal Conc 5): 3 (A450 nm 2-3); Classification ([3]; PDZ KIAA807 (domain not given), PL peptide 10 uM): 4 (A450 nm 3-4)

Source: patent US20050282743A1, “Molecular interactions in cells” (Arbor Vita Corporation, priority 2001, published 2005)
